Experimental data as given in patent US20220332795A1 (ARO BIOTHERAPEUTICS, published 2022).

Key:
[1] = target: T1, recombinant biotinylated CD71 extracellular domain (Sino Biologics) with an N-terminal 6His tag (human, UniProt P02786 89-760, biotinylated (site not stated)); assay: primary solution ELISA screen, signal on hCD71 over HSA
T1 construct: extracellular domain; also called hCD71; huCD71 ECD

[2] = target: T1, recombinant biotinylated CD71 …; assay: primary solution ELISA screen

T1 sequence (P02786 other isoform, or with tags, fused parts or gaps): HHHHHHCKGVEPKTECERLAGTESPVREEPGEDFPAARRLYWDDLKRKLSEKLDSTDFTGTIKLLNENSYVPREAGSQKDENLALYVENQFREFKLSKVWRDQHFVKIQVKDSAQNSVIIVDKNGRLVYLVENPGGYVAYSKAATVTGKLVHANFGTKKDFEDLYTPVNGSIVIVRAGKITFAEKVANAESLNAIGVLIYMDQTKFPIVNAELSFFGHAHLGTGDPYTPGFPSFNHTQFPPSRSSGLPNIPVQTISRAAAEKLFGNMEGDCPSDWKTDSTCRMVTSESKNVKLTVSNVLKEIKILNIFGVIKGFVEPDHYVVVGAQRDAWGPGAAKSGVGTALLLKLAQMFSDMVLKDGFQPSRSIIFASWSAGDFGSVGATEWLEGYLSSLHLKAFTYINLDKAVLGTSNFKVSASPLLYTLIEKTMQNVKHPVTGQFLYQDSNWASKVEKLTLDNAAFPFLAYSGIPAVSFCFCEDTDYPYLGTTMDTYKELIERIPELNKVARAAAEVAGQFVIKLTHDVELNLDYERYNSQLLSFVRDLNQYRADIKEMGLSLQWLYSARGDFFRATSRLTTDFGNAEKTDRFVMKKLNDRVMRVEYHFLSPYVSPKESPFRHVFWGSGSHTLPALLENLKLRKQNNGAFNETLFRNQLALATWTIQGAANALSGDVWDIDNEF

Row | hCD71:HSA [1] | RLU [2] [RLU] | Binder
1 | 68 | 1.11e+06 | SEQ ID NO 59 (designed binder, not shown: small tags and cut ends, FN3 domain, hit of the apical domain panning) MLPAPKNLVVSRVTEDSARLSWTAPDAAFDSFVYNEVHWIGEAIVLTVPGSERSYDLTGLKPGTEYFVGIYGVKGGHWSKPLSAIFTT
2 | 26 | 3.04e+06 | SEQ ID NO 48 (designed binder, not shown: small tags and cut ends, FN3 domain, hit of the apical domain panning) MLPAPKNLVVSRVTEDSARLSWTAPDAAFDSFLIYYEEGYLEYYYSGEAIVLTVPGSERSYDLTGLKPGTEYYVGIVGVKGGGLSGPLSAISTT
3 | 20 | 321000 | SEQ ID NO 50 (designed binder, not shown: small tags and cut ends, FN3 domain, hit of the apical domain panning) MSLPAPKNLVVSRVTEDSARLSWTAPDAAFDSFTIHYREFQLSGEAIVLTVPGSERSYDLTGLKPGTEYDVPIEGVKGGPGSRPLSAIFTT
4 | 45 | 440000 | SEQ ID NO 99 (designed binder, not shown: small tags and cut ends, FN3 domain, hit of the apical domain panning) MLPAPKNLVVSRVTEDSARLSWTAPDAAFDSFFIPYAEPSPTGEAIVLTVPGSERSYDLTGLKPGTEYSVLIHGVKGGHLSDPLSVIFTT
5 | 53 | 956000 | SEQ ID NO 19 (designed binder, not shown: small tags and cut ends, FN3 domain, hit of the apical domain panning) MLPAPKNLVVSRVTEDSARLSWTAPDAAFDSFAITYTEAALCGEAIVLTVPGSERSYDLTGLKPGTEYPVPINGVKGGGTSGPLSAIFTT
6 | 38 | 338000 | SEQ ID NO 72 (designed binder, not shown: small tags and cut ends, FN3 domain, hit of the apical domain panning) MLPAPKNLVVSRVTEDSARLSWTAPDAAFDSFTIGYREWYWYGEAIVLTVPGSERSYDLTGLKPGTEYNVPISGVKGGLDSFPLSAIFTT
7 | 61 | 221000 | SEQ ID NO 17 (designed binder, not shown: small tags and cut ends, FN3 domain, hit of the apical domain panning) MLPAPKNLVVSRVTEDSARLSWTAPDAAFDSFPILYTECVYRGEAIVLTVPGSERSYDLTGLKPGTEYHVPITGVKGGGGSWPLSAIFTT
8 | 36 | 772000 | SEQ ID NO 43 (designed binder, not shown: small tags and cut ends, FN3 domain, hit of the apical domain panning) MLPAPKNLVVSRVTEDSARLSWTAPDAAFDSFMIVYYEYTRFGEAIVLTVPGSERSYDLTGLKPGTEYTVPIDGVKGGGRSSPLSAIFTT
9 | 70 | 1.73e+06 | SEQ ID NO 13 (designed binder, not shown: small tags and cut ends, FN3 domain, hit of the apical domain panning) MLPAPKNLVVSRVTEDSARLSWTAPDAAFDSFLIAYPEDGFRGEAIVLTVPGSERSYDLTGLKPGTEYPVPILGVKGGGGSGPLSAIFTT
10 | 99 | 1.92e+06 | SEQ ID NO 56 (designed binder, not shown: small tags and cut ends, FN3 domain, hit of the apical domain panning) MLPAPKNLVVSRVTEDSARLSWTAPDAAFDSFSIGYVELVLLGEAIVLTVPGSERSYDLTGLKPGTEYDVLIPGVKGGSLSRPLSAIFTT
11 | 79 | 828000 | SEQ ID NO 18 (designed binder, not shown: small tags and cut ends, FN3 domain, hit of the apical domain panning) MLPAPKNLVVSRVTEDSARLSWTAPDAAFDSFNIMYHEIIYVGEAIVLTVPGSERSYDLTGLKPGTEYPVPIEGVKGGGTSGPLSAIFTT
12 | 195 | 1.58e+06 | SEQ ID NO 34 (designed binder, not shown: small tags and cut ends, FN3 domain, hit of the apical domain panning) MLPAPKNLVVSRVTEDSARLSWTAPDAAFDSFYITYVELNLAGEAIVLTVPGSERSYDLTGLKPGTEYPVPILGVKGGSLSQPLSAIFTT
13 | 21 | 515000 | SEQ ID NO 88 (designed binder, not shown: small tags and cut ends, FN3 domain, hit of the apical domain panning) MLPAPKNLVVSRVTEDSARLSWTAPDAAFDSFPIKYREVLRCGEAIVLTVPGSERSYDLTGLKPGTEYTVPITGVKGGFGSSPLSAIFTT
14 | 132 | 271000 | SEQ ID NO 33 (designed binder, not shown: small tags and cut ends, FN3 domain, hit of the apical domain panning) MLPAPKNLVVSRVTEDSARLSWTAPDAAFDSFGIAYVESYWYGEAIVLTVPGSERSYDLTGLKPGTEYNVPIYGVKGGDGSGPLSAIFTT
15 | 46 | 205000 | SEQ ID NO 30 (designed binder, not shown: small tags and cut ends, FN3 domain, hit of the apical domain panning) MLPAPKNLVVSRVTEDSARLSWTAPDAAFDSFIIHYVEQQLIGEAIVLTVPGSERSYDLTGLKPGTEYPVPITGVKGGACSWPLSAIFTT
16 | 19 | 252000 | SEQ ID NO 61 (designed binder, not shown: small tags and cut ends, FN3 domain, hit of the apical domain panning) MLPAPKNLVVSRVTEDSARLSWTAPDAAFDSFQIVYSELWIKGEAIVLTVPGSERSYDLTGLKPGTEYQVPIPGVKGGRNSFPLSAIFTT
17 | 41 | 674000 | SEQ ID NO 76 (designed binder, not shown: small tags and cut ends, FN3 domain, hit of the apical domain panning) MLPAPKNLVVSRVTEDSARLSWTAPDAAFDSFTIEYYENIGIGEAIVLTVPGSERSYDLTGLKPGTEYSVPIVGVKGGPYSHPLSAIFTT
18 | 580 | 2.17e+06 | SEQ ID NO 29 (designed binder, not shown: small tags and cut ends, FN3 domain, hit of the apical domain panning) MLPAPKNLVVSRVTEDSARLSWTAPDAAFDSFWIEYWEAVGFGEAIVLTVPGSERSYDLTGLKPGTEYFVGIYGVKGGYLSAPLSAIFTT
19 | 33 | 210000 | SEQ ID NO 85 (designed binder, not shown: small tags and cut ends, FN3 domain, hit of the apical domain panning) MLPAPKNLVVSRVTEDSARLSWTAPDAAFDSFIIEYFEPIPIGEAIVLTVPGSERSYDLTGLKPGTEYAVNIYGVKGGYLSHPLSAIFTT
20 | 49 | 579000 | SEQ ID NO 54 (designed binder, not shown: small tags and cut ends, FN3 domain, hit of the apical domain panning) MLPAPKNLVVSRVTEDSARLSWTAPDAAFDSFAIAYGEHIVIGEAIVLTVPGSERSYDLTGLKPGTEYMVPIAGVKGGPISLPLSAIFTT
21 | 98 | 1.99e+06 | SEQ ID NO 47 (designed binder, not shown: small tags and cut ends, FN3 domain, hit of the apical domain panning) MLPAPKNLVVSRVTEDSARLSWTAPDAAFDSFGIVYLEMMVTGEAIVLTVPGSERSYDLTGLKPGTEYDVPILGVKGGTRSVPLSAIFTT
22 | 826 | 4.71e+06 | SEQ ID NO 63 (designed binder, not shown: small tags and cut ends, FN3 domain, hit of the apical domain panning) MLPAPKNLVVSRVTEDSARLSWTAPDAAFDSFCISYYERMGRGEAIVLTVPGSERSYDLTGLKPGTEYMVYIFGVKGGLNSLPLSAIFTT
23 | 43 | 315000 | SEQ ID NO 6 (designed binder, not shown: small tags and cut ends, FN3 domain, hit of the apical domain panning) MLPAPKNLVVSRVTEDSARLSWTAPDAAFDSFPIIYMETFSRGEAIVLTVPGSERSYDLTGLKPGTEYRVPIGGVKGGSSSCPLSAIFTT
24 | 28 | 229000 | SEQ ID NO 62 (designed binder, not shown: small tags and cut ends, FN3 domain, hit of the apical domain panning) MLPAPKNLVVSRVTEDSARLSWTAPDAAFDSFKIRYTETRSIGEAIVLTVPGSERSYDLTGLKPGTEYCVPIGGVKGGDSSWPLSAISTT
25 | 101 | 1.04e+06 | SEQ ID NO 58 (designed binder, not shown: small tags and cut ends, FN3 domain, hit of the apical domain panning) MLPAPKNLVVSRVTEDSARLSWTAPDAAFDSFHIEYLELSRHGEAIVLTVPGSERSYDLTGLKPGTEYWVMIFGVKGGGPSKPLSAIFTT
26 | 29 | 232000 | SEQ ID NO 66 (designed binder, not shown: small tags and cut ends, FN3 domain, hit of the apical domain panning) MLPAPKNLVVSRVTEDSARLSWTAPDAAFDSFTIDYDEPRSPGEAIVLTVPGSERSYDLTGLKPGTEYRVFIWGIKGGDTSFPLSAIFTT
